These results are taken from patent US11306156.

In test [1] the target is D3H44 Fab heavy chain L124E_L143D_K145M, C-terminal ABD2-His6 tag. As to the kind of experiment: LCCA set 9176 (co-expression; SPR read-out of light-chain tags; L1:L2 DNA 1:3, normalized to 1:1); competing light chain m10.
In test [2] the target is D3H44 Fab heavy chain L124E_L143D_K145T, C-terminal ABD2-His6 tag. As to the kind of experiment: LCCA set 9214 (co-expression; SPR read-out of light-chain tags; L1:L2 DNA 1:3, normalized to 1:1); competing light chain m10.
The target in test [3] is D3H44 Fab heavy chain L124R_S186K, C-terminal ABD2-His6 tag. As to the kind of experiment: LCCA set 9451 (co-expression; SPR read-out of light-chain tags; L1:L2 DNA 1:3, normalized to 1:1); competing light chain m10.
Test [4] has the same target. Nature of the test: LCCA set 9461 (co-expression; SPR read-out of light-chain tags; L1:L2 DNA 1:3, normalized to 1:1); competing light chain m13.
Test [5] concerns the target D3H44 Fab heavy chain L124E_L143D_K145M, C-terminal ABD2-His6 tag. Nature of the test: LCCA set 9196 (co-expression; SPR read-out of light-chain tags; L1:L2 DNA 1:3, normalized to 1:1); competing light chain m13.
In test [6] the target is D3H44 Fab heavy chain L124R_S186R, C-terminal ABD2-His6 tag. As to the kind of experiment: LCCA set 9505 (co-expression; SPR read-out of light-chain tags; L1:L2 DNA 1:3, normalized to 1:1); competing light chain m10.
Test [7] has as its target D3H44 Fab heavy chain L124E_L143E_K145M, C-terminal ABD2-His6 tag. As to the kind of experiment: LCCA set 9257 (co-expression; SPR read-out of light-chain tags; L1:L2 DNA 1:3, normalized to 1:1); competing light chain m10.
Test [8] addresses D3H44 Fab heavy chain L124E_L143D_K145M, C-terminal ABD2-His6 tag. As to the kind of experiment: LCCA (co-expression, SPR read-out of light chain tags), L1:L2 DNA 1:3 normalised to 1:1; competitor m11.
Test [9] concerns the target D3H44 Fab heavy chain L124R_S186R, C-terminal ABD2-His6 tag. The test is described as above.
The target in test [10] is D3H44 Fab heavy chain L124E_L143D_K145T, C-terminal ABD2-His6 tag. The description is as above.
For test [11], the target named is D3H44 Fab heavy chain L124E_L143E_K145T, C-terminal ABD2-His6 tag. As to the kind of experiment: LCCA (co-expression, SPR read-out of light chain tags), L1:L2 DNA 1:3 normalised to 1:1; competitor m10.
Test [12] deals with D3H44 Fab heavy chain L124R_S186K, C-terminal ABD2-His6 tag. The description is as above.
Test [13] has as its target D3H44 Fab heavy chain L124E_L143E_K145M, C-terminal ABD2-His6 tag. The test is described as above.
Test [14] deals with D3H44 Fab heavy chain L124E_L143E_K145T, C-terminal ABD2-His6 tag. Nature of the test: LCCA co-expression, SPR tag read-out; DNA 1:3 norm. to 1:1; competing light chain m8.
Test [15] deals with D3H44 Fab heavy chain L124R_S186R, C-terminal ABD2-His6 tag. The test is described as above.
The target in test [16] is D3H44 Fab heavy chain L124E_L143E_K145M, C-terminal ABD2-His6 tag. Described as above.
Test [17] has as its target D3H44 Fab heavy chain L124E_L143D_K145M, C-terminal ABD2-His6 tag. Nature of the test: LCCA (co-expression, SPR read-out of light chain tags), L1:L2 DNA 1:3 normalised to 1:1; competitor m14.
Test [18] has as its target D3H44 Fab heavy chain L124R_Q179K, C-terminal ABD2-His6 tag. Described as above.
Test [19] deals with D3H44 Fab heavy chain L124E_L143D_K145T, C-terminal ABD2-His6 tag. Described as above.
For test [20], the target named is D3H44 Fab heavy chain L124R_Q179K, C-terminal ABD2-His6 tag. Nature of the test: LCCA co-expression, SPR tag read-out; DNA 1:3 norm. to 1:1; competing light chain m14.
The target of test [21] is D3H44 Fab heavy chain L124E_L143E_K145T, C-terminal ABD2-His6 tag. The test is described as above.
Test [22] addresses D3H44 Fab heavy chain L124E_L143D_K145M, C-terminal ABD2-His6 tag. Nature of the test: LCCA (co-expression, SPR read-out of light chain tags), L1:L2 DNA 1:3 normalised to 1:1; competitor m13.
Test [23] has as its target D3H44 Fab heavy chain L124R_Q179K, C-terminal ABD2-His6 tag. The test is described as above.
Test [24] has as its target D3H44 Fab heavy chain L124R_D146N_Q179K, C-terminal ABD2-His6 tag. Nature of the test: LCCA set 9350 (co-expression; SPR read-out of light-chain tags; L1:L2 DNA 1:3, normalized to 1:1); competing light chain m17.
Test [25] concerns the target D3H44 Fab heavy chain L124R_Q179K, C-terminal ABD2-His6 tag. As to the kind of experiment: LCCA co-expression, SPR tag read-out; DNA 1:3 norm. to 1:1; competing light chain m11.
Test [26] has as its target D3H44 Fab heavy chain L124E_L143E_K145T, C-terminal ABD2-His6 tag. The test is described as above.
Test [27] has as its target D3H44 Fab heavy chain L124E_L143E_K145M, C-terminal ABD2-His6 tag. The test is described as above.
Test [28] has as its target D3H44 Fab heavy chain L124E_L143D_K145T, C-terminal ABD2-His6 tag. Described as above.
Test [29] concerns the target D3H44 Fab heavy chain L124R_Q179K, C-terminal ABD2-His6 tag. As to the kind of experiment: LCCA co-expression, SPR tag read-out; DNA 1:3 norm. to 1:1; competing light chain m12.
For test [30], the target named is D3H44 Fab heavy chain L124E_L143E_K145T, C-terminal ABD2-His6 tag. The description is as above.
The target in test [31] is D3H44 Fab heavy chain L124E_L143E_K145M, C-terminal ABD2-His6 tag. The description is as above.
Test [32] deals with D3H44 Fab heavy chain L124E_L143E_K145T, C-terminal ABD2-His6 tag. Nature of the test: LCCA set 9271 (co-expression; SPR read-out of light-chain tags; L1:L2 DNA 1:3, normalized to 1:1); competing light chain m17.
Test [33] has as its target D3H44 Fab heavy chain L124R_S186K, C-terminal ABD2-His6 tag. Nature of the test: LCCA set 9473 (co-expression; SPR read-out of light-chain tags; L1:L2 DNA 1:3, normalized to 1:1); competing light chain m10.
For test [34], the target named is D3H44 Fab heavy chain L124E_L143D_K145M, C-terminal ABD2-His6 tag. Nature of the test: LCCA set 9199 (co-expression; SPR read-out of light-chain tags; L1:L2 DNA 1:3, normalized to 1:1); competing light chain m13.
Test [35] addresses D3H44 Fab heavy chain L124E_L143D_K145T, C-terminal ABD2-His6 tag. Nature of the test: LCCA set 9217 (co-expression; SPR read-out of light-chain tags; L1:L2 DNA 1:3, normalized to 1:1); competing light chain m10.
Test [36] concerns the target D3H44 Fab heavy chain L124E_L143E_K145M, C-terminal ABD2-His6 tag. As to the kind of experiment: LCCA set 9253 (co-expression; SPR read-out of light-chain tags; L1:L2 DNA 1:3, normalized to 1:1); competing light chain m11.
Test [37] deals with D3H44 Fab heavy chain L124R_S186K, C-terminal ABD2-His6 tag. Nature of the test: LCCA set 9484 (co-expression; SPR read-out of light-chain tags; L1:L2 DNA 1:3, normalized to 1:1); competing light chain m13.
Test [38] has the same target. As to the kind of experiment: LCCA (co-expression, SPR read-out of light chain tags), L1:L2 DNA 1:3 normalised to 1:1; competitor m11.
For test [39], the target named is D3H44 Fab heavy chain L124R_S186R, C-terminal ABD2-His6 tag. Nature of the test: LCCA (co-expression, SPR read-out of light chain tags), L1:L2 DNA 1:3 normalised to 1:1; competitor m10.
The target of test [40] is D3H44 Fab heavy chain L124R_S186K, C-terminal ABD2-His6 tag. As to the kind of experiment: LCCA co-expression, SPR tag read-out; DNA 1:3 norm. to 1:1; competing light chain m8.
The target in test [41] is D3H44 Fab heavy chain L124R_S186R, C-terminal ABD2-His6 tag. As to the kind of experiment: LCCA set 9526 (co-expression; SPR read-out of light-chain tags; L1:L2 DNA 1:3, normalized to 1:1); competing light chain m11.

Regarding “D3H44 light chain Q124E_V133G_S176D_T178D_T180E, N-terminal HA or FLAG tag”, the H1L1:H1L2 normalized median ratio (H1L2 part) was 17% in test [1], 15% in test [2], 12% in test [5] and 16% in test [7]. Moreover, the H2L2:H2L1 normalized median ratio (H2L2 part) in test [3] came to 93%; in [4] it was 89%; in test [6] it was 94%. For the same substance, the H1L1:H1L2 normalized median ratio in [8] turned out to be 12%; in test [10], 14%; in [11], 4%; in [13], 5%. Moreover, the H2L2:H2L1 normalized median ratio in test [9] was found to be 94%; in test [12], 82%. Also, the figures for the H1L1:H1L2 normalized median ratio (% (ratio normalized to 100)) in test [14] and in test [16] were 4 and 5, respectively. Moreover, the H2L2:H2L1 normalized median ratio (% (ratio normalized to 100)) in [15] is 88.
Regarding “D3H44 light chain Q124K_V133G_Q160K_S176R, N-terminal HA or FLAG tag”, the H1L1:H1L2 normalized median ratio in test [17] turned out to be 92%; in test [19] it was 92%; in test [22], 91%. In addition, the H2L2:H2L1 normalized median ratio in test [18] and in test [23] was 8% throughout. In addition, the H2L2:H2L1 normalized median ratio (% (ratio normalized to 100)) in [20] amounted to 10; in [25] it was 8; in test [29], 8. Besides, the H1L1:H1L2 normalized median ratio (% (ratio normalized to 100)) in [21] was 94; in test [26], 95; in test [27] it was 94; in test [28] it was 94; in [30], 95; in test [31], 92. The H1L1:H1L2 normalized median scalar value ln(r1/f1) in [22] turned out to be 2.36; in test [26], 3; in test [27] it was 2.72; in test [28], 2.69; in test [30], 2.92; in [32], 2.92. The H2L2:H2L1 normalized median ratio (H2L1 part) in test [24] stood at 18%. In test [32], the H1L1:H1L2 normalized median ratio (H1L1 part) stood at 95%.
In the case of “D3H44 light chain V133G_S176D_T178D_T180E, N-terminal HA or FLAG tag”, the H2L2:H2L1 normalized median ratio (H2L2 part) in [33] was found to be 93%; in [37], 92%; in test [41], 80%. Also, the results for the H1L1:H1L2 normalized median ratio (H1L2 part) in test [34], in [35] and in test [36] were 13%, 18% and 5%, respectively. For the same substance, the values for the H2L2:H2L1 normalized median ratio in [38] and in test [39] were 92% and 80%, respectively. For the same substance, the H1L1:H1L2 normalized median ratio in test [10] was found to be 11%; in test [11] it was 4%. The values for the H1L1:H1L2 normalized median ratio (% (ratio normalized to 100)) in [14] and in test [16] were 4 and 5, respectively. Also, in test [40], the H2L2:H2L1 normalized median ratio (% (ratio normalized to 100)) was 90.
